assay: yeast display, Sf9 membrane polyspecificity reagent, FACS + sequencing; frameworks hold sequencing errors
In short: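 A synthetic nanobody library was expressed on Saccharomyces cerevisiae BJ5465 by galactose induction for 36–48 hours. The library was stained for 1 hour at 4 °C with 10% biotinylated, detergent-solubilized Sf9 membrane reagent and enriched with streptavidin microbeads before FACS. Low and high (top ~1%) gates were set on anti-HA fluorescence for expression and streptavidin fluorescence for reagent binding, and each polyreactivity label reflects the gate of origin.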

Sequence	polyreactivity (PSR sort gate)
QVQLVESGGGLVQAGGSLRLSCAASGGIFGHNAMGWYRQAPGKERELVAAISYTGGSTYYADSVKGRFTISRDNAKNTVYLQMNSLKPEDTAVYYCNAVQRRFRYPFDYWGQGTQVTVSS	low polyreactivity
QVQLVESGGGLVQAGGSLRLSCAASGRTFRSYAMGWYRQAPGKERELVAGISYNGGSTYYADSVKGRFTISRDNAKNTVYLQMNSLKPADTAGYYCAATHHYRLYDYWGQGTQVNVSS	low polyreactivity
QVQLVESGVGLVQAGGSLRLRCAASARIFGWYTMGWNRQSPGKERELVADINFGGSTYYADSVKGRFTISRDNAKNTVYLLMKSLKSEYTAVFYCNADYSVYIIADEYDYWGQGTQVTVSS	low polyreactivity
QVQLVESGGGLVQAGGSLRLSCAASGFTLAFYGMGRSRQAPGKERELVAAISRSGGSTYYADSVKGRFTISRDNAKNTVYLQMNSLKPEDTAVYYCAAAFRAGDVYGYYWGQGTQVTVSS	high polyreactivity
QVQLVESGGGLVQAGGSLRLSCAASGFIFRYYAMGWYRQAPGKERELVAAITSRGSSTYYADSVKGRFTISRDNAKNTVYLQMNSLKPEDTAVYYCAARLRGDYVRYYYWGQGTQVTVSS	high polyreactivity
QVQLVESGGGLVQAGGSLRLSCAASGRIFDSYAMGSYRQAPGKERELVAVISNNDGTTYYADSVKGRFTISRDNEKNTVYLQMNSLKPEDTAVYYCAAEEPLFGYLWYVVTYAGIYDYWGQGSQVTVSS	low polyreactivity
QVQLVESGGGLVQAGGSLRLSSAASGLIYPVYAMGWYRQAPGKEREFVASIWRGGTTYYADSVKGRFTISRDNAKNTVYLQMTSLKPEDTAVYYCASRYYPRGLVFPFTKYDYWGLGTQVTVSS	high polyreactivity
QVQLVESGGGLVQAGGSLRLSCAASGFTFYTYTMGWYRQAPGKERELVAVISRSGGSTYYADSVKGRFTISRDNAKNTVYLQMNSLKPEDTAVYYCNAGYWRFIDSYDYWGQGTQVTVSS	high polyreactivity
QVQLVESGGGLVQAGGSLRLSCAASGRILKWNAMGWYRQAPGKERELVAAISQSGGSTYYADSVKGRFTISRDNAKNTVYLQMNSLKPEDTAVYYCATSGDWWGFRYDYWGQGTQVTVSS	low polyreactivity
QVQLVESGGGLVQAGGSLRLSCAASGSIFTSYAMGWYRQAPGKERELVAAISRRGSRTYYADSVKGRFTISRDNANNTVYLQMNSLKPEETAVYDCAAKSGGQPGDSWGQGTQVTVSS	high polyreactivity
QVQLVESGGGLVQAGGSLRLSCAASGRIFRINAMGWYRQAPGKERELVATITSGGGSTYADSVKGRFTISRDNAKNTVYLQMNSLKPEDTAVYYCAARSRIGRYTYDYWGQGTQVTVSS	high polyreactivity
QDQHVESGGGLVQAGGSLRLICDASGTFKFSAMGWYRQAPGKERELVARISRGGTTNYADSVKGRFTISRDNAKNTVYLQMNSLKPAETAVYYCAAPLRYVYSNSYWAYRYDYSGQGTQVTVSS	high polyreactivity
QVQLVKSGGGLVQAGGSLRLSCAASGSTFYNAMGWYRQAPGKEREWVAAISIGGSTYYADSVKGRFTISRYNAKNTVYLQMNSLKPEDTAVYYCNADLYYWLRYYDRNDYWGQGTQVTVSS	low polyreactivity
QVQLVESGGGLDQAGGSLRLSCAASARTFTYYAMGWYRQAPGKERELVAAIRWTGDSTYYADSVKGRFTISRDYAKNTVYLQMNSLKPEDTAVYYCAKQARWQYDGGIRWYYYWGQGTQVTVSS	high polyreactivity
QVQLVESGGGLVQEGGSLRLSCAATGSIFSSYAMGWYRQAPGKERELVASINSAGSTNYADSVKGRFTISRDNAKITVYLQMNSLKPEDTAVYYCARGGAVVYLDYWGQGTQVTVSS	low polyreactivity
QVQLVESGGGLVQGGGSLRLSFAASGSIFWRNAMGWYRQAPGKERELVAAITSGGSTYYADSVKGRFTISRDNAKNTVYLQMNSLKPEDTAVYYCAAGGRWARWLFPSRYDYWGQGTQVTVSS	low polyreactivity

Sequence	polyreactivity (PSR sort gate)
QVQLVESGGRLVQAGGSLRLSCAASGSTFQYNAMGWYRQAPGKERELVAAISLSGGSTYYADSVKGRFTISRDNAKNRVYLQMNSLKPEDTAVYYCAARQWYRYKVRFDYWGQGTQVTVSS	high polyreactivity
QVQLEESGGGLVQAGGSLRLSCAASGFTFGGYAMGWYRQAPGKERELVAAITGSGGNTFYADSVKGRFTISRDYAKNTVYLQMNCLKPEDTAVYYCAKSWYPWSSYGYYRRYDSWGQGTQVTLSS	low polyreactivity
QVQLVESGGGLVQAGGSLRLSCAASGRTFRYYAMGWYRQAPGKEREFVAAITRSAVSTYYADSVKGRFTISRDNAKNTVYLQMNSLKPEDTAIYYCAVDSSLVKVGFDYWGQGTQVTVSS	high polyreactivity
QVQLVESGGGLVQAGGSLRLSCAASGIIFKSYAVGWYRQAPGKERELVAAISSGGSTNYADSVKGRFTISRDNAKNTVYLQMNSLKPEDTAVYYCAKRYTATEWHGERDYWGQGTQVTVSS	high polyreactivity
QVQLVESGGGLVQAGGSLRLSCAASGRTCGYNAMGWYRQAPGKERELVAAISWSGTRSYYADSVKGRFTSSRDNAKNTVYLQMNSLKPEDTAVYYCAKRTLYGRTWSTSDYWGQGTQVTVSS	high polyreactivity
QVHLVESGGGLVQAGGSLRLSCAATGSTFRYNAMGWYRQAPGKERELVAAISWRGGSTYYADSVKGRFTISRDNAKNTVYLQMNSLKPEDTAVYYCAADRYPSTTYPLSDYNYWGQGTQVTVSS	high polyreactivity
QVQLVESGGGLVQAGGSLRLICAASGFILKPNAMGWYRQAPGKERELVAAISWSSGSTYYADSVKGRFTISRDNAKNTVYLQMNSLKPEDTAVYYCAADYFVYPVDWYDYWGQGTQVTVSS	low polyreactivity
QVQLQESGGDLEQAGGSLRLSCTASGTISDVRDMGWYRQAPGKERELVATISYVTITYYSDSVKGRFTISRASEKHRVSADDEPETGRYRGVLLRYYWGLGTQVTVSS	low polyreactivity
QVQLVESGGGLVQAGGSLRLSCAASALIFKTYTMGWYRQAPGKEREFVAAITTSGGSTYYADSVKGRFTISRDNAKNTVYLQMNSLKPEDTAVYYCAAVWWKSFQGSSYRMNYWGQGTQVTVSS	high polyreactivity
QVQLVESGGGLVQAGGSLRLSCAASGFTFPYYAMGRYRQAPGKERELVAAITRSGGSTNYADSVKGRFTISRDNAKNTVYLQMNSLKPEDTAVYYCNAPPGYSSTRNGYWGQGTQVTVSS	high polyreactivity
QVQLVESGGGLVQAGGSLRLSCAASGFIFRKYAMGWYRQAPGKERELVAAITNGGSTYADSVKGRFTISRDNAKNTVYLQMNSLKPEDTAVYYCNARYRPRQRPEGGYWGQGTQVTVSS	high polyreactivity
QVQLVESGGGLVQAGGSLRLSCAASGRTFGLYAMGWYRQAPGKERELVADINGSGTRTYYADSVKGRFTISRDNAKNTVYLQMNSLKPEDTAVYYCYGRYHWLYYWGQGTQVTVSS	high polyreactivity
QVQLVESGGGLVQAGGSLRLICAASAITFYDYTMGWYRQAPGKERELVAAISRSGGSTYYADSVKGRFTISRDNAKNTVYLQMNSLKPEETAFYYCADYTHYQPEYDYWGQGTQVTVSS	high polyreactivity
QVQLVESGGGLVQAGGSLRLSCAASGSTFGINAMGWYRQSPGKERELVAAISSRGGRTYYADSVKGRFTISRDNAKNTVYLQMNSLKPEDTAVYYCNAVYGRVKGRGVGFKPQYDSWGQGTQVTVSS	high polyreactivity
QVQLVESGGGLVQAGGSLRLSCAASGSTSQRNAMGWYRQAPGKERELVAAISRSGGSTSYADSVKGRFTISRDNAKNTVYLQMNSLKPEDTAVYYCNTDRRIYRVWYYYWGQGTQVTVSS	high polyreactivity

Reference: the nanobody polyreactivity screen of Harvey et al. (2022)
